Measured values published in paper PMC11092803, “Heme allocation in eukaryotic cells relies on mitochondrial heme export through FLVCR1b to cytosolic GAPDH” (Research Square, 2024).

T1: Feline Leukemia Virus subgroup C Receptor 1b (FLVCR1b) (human (endogenous in HEK293T), UniProt Q9Y5Y0-2 1-279)
T1 construct: FLVCR1 isoform b, the mitochondrially targeted version of FLVCR1a that is missing the first six transmembrane helices; endogenous in human HEK293T cells, detected or precipitated with an anti-FLVCR antibody (Novus NB100-1481); The antibody is named as against human FLVCR / FLVCR1; also called Feline leukemia virus subgroup C receptor 1 isoform b; source: endogenous, HEK293T cells; endogenous, …
T1 sequence (looked up): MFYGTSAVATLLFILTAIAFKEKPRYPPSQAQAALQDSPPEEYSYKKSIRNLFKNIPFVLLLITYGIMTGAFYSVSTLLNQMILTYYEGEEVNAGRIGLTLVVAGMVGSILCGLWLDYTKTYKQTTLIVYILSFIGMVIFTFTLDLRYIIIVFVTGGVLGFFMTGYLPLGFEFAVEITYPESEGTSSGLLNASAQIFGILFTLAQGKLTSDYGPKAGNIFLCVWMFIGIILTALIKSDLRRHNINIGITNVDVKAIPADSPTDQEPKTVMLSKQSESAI

T2: FLVCR1b in isolated mouse mitochondria (mouse (endogenous in brain and liver …, UniProt B2RXV4-2 1-279))
T2 construct: Detected with the antibody named as against FLVCR1 (Novus NB100-1481); also called mitochondrial FLVCR1b; source: endogenous, mitochondria isolated from mouse brain and liver
T2 sequence (looked up): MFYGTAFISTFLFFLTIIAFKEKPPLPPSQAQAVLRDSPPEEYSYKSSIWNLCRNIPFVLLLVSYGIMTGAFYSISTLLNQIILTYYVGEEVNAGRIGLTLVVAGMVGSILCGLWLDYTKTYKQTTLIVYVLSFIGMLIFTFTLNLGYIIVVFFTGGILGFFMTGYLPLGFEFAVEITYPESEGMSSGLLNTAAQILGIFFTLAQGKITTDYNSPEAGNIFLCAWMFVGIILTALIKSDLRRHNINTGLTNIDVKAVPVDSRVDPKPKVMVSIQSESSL

B1: Transport and Golgi Organization 2 (TANGO2) protein (natural protein, human (endogenous in HEK293T), UniProt Q6ICL3 1-276, looked up)
chain: MCIIFFKFDPRPVSKNAYRLILAANRDEFYSRPSKLADFWGNNNEILSGLDMEEGKEGGTWLGISTRGKLAALTNYLQPQLDWQARGRGELVTHFLTTDVDSLSYLKKVSMEGHLYNGFNLIAADLSTAKGDVICYYGNRGEPDPIVLTPGTYGLSNALLETPWRKLCFGKQLFLEAVERSQALPKDVLIASLLDVLNNEEAQLPDPAIEDQGGEYVQPMLSKYAAVCVRCPGYGTRTNTIILVDADGHVTFTERSMMDKDLSHWETRTYEFTLQS
notes: TANGO2, endogenous in human HEK293T cells, detected with an anti-TANGO2 antibody (Invitrogen PA5-51818); also called Transport and Golgi organization 2 homolog; T2; source: endogenous, HEK293T cells
B2: H53A point mutant variant of HA-hGAPDH (natural protein)
chain: not shown
notes: human GAPDH with H53A, expressed from the H53A variant of pRK5-TC-hGAPDH-HA; also called H53A HA-GAPDH; HA-H53A; source: HEK293T, transfected (H53A variant of pRK5-TC-hGAPDH-HA), in cells; in solubilised mitochondria
B3: glyceraldehyde phosphate dehydrogenase (GAPDH) (natural protein)
chain: not shown
notes: Glyceraldehyde 3-phosphate dehydrogenase, endogenous in the human HEK293T cell line, detected with an anti-GAPDH antibody; In the experiments on isolated mouse mitochondria the GAPDH came with HEK293T cytosol, but mouse GAPDH that stayed on the mitochondria cannot be ruled out; also called Glyceraldehyde 3-phosphate dehydrogenase; source: endogenous, HEK293T cells; endogenous, solubilised HEK293T …

Key:
Conditions in all cases: partners not purified
[1] = molecular target: B3; test: proximity ligation; Duolink PLA on fixed, permeabilised heme-depleted HEK293T cells, pairs of primary antibodies to the endogenous proteins; 0, 15, 30, 45, 60 and 120 min after δ-ALA (1 mM) and ferric citrate (100 μM); also in cells with control siRNA or knock-down of TANGO2 or GAPDH; background = one primary antibody alone, set to 1.0
[2] = molecular target: T1, Feline Leukemia Virus subgroup C …; test: as above
[3] = molecular target: T1, Feline Leukemia Virus subgroup C …; test: proximity ligation; Duolink PLA on HEK293T cells transfected with HA-tagged GAPDH wild type or H53A, antibodies to HA and FLVCR1; resting and at times after δ-ALA/Fe; background = one primary antibody alone
[4] = molecular target: T2, FLVCR1b in isolated mouse mitochondria; test: proximity ligation; Duolink PLA on mitochondria from mouse brain and liver, before or after incubation with δ-ALA and mitochondria-free HEK293T cytosol (control or TANGO2 knock-down cells) at 37 °C, reisolated and placed on poly-D-lysine coverslips

Row | Binder | PLA signal over background [1] [fold over background] | PLA signal over background, resting cells [2] [fold over background] | PLA signal over background, resting cells [3] [fold over background] | fold increase of PLA signal after 30 min with δ-ALA and cytosol [4] [fold] | fold increase of PLA signal 30 min after δ-ALA/Fe [2] [fold]
1 | B1 | 2.5 | 5 |  |  | 
2 | B2 |  |  | ~2 |  | 
3 | B3 |  | 2.5 |  | 4 | 18
